Patent US20060210549

Assays:
[1] = system: P1, H2N-GPQGIAGQR(GPO)4GG-OH
[2] = system: lipopeptide LP1, CH3(CH2)16COHN-GPQGIAGQR(GPO)4GG-OH

recombinant form of human MMP-9, containing the catalytic and fibronectin domains of the enzyme, sequence (chain, as listed by the source): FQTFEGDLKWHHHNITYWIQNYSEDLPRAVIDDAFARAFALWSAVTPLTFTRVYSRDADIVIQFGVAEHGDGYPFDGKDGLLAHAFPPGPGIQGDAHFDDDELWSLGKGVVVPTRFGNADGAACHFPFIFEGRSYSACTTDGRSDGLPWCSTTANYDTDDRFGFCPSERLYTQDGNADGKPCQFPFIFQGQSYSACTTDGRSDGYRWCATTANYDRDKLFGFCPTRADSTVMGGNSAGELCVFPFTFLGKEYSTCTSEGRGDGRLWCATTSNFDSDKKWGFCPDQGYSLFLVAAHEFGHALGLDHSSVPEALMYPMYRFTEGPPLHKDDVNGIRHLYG
trypsin, sequence (P00760 24-246): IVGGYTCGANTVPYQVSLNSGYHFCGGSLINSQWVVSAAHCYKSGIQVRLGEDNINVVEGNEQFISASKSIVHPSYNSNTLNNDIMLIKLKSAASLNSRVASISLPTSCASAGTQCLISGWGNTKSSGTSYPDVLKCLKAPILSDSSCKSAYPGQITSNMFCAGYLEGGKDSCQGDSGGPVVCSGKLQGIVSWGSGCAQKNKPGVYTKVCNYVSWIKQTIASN

recombinant form of human MMP-9, containing the catalytic and fibronectin domains of the enzyme
cleavage of the peptide, products analyzed by RP-HPLC [1]: The peptide P1 (Rpn=0.04) was efficiently cleaved by the target enzyme MMP-9
cleavage of the lipopeptide, products analyzed by RP-HPLC [2]: the lipopeptide LP1 (Rpn=0.11) was partially cleaved by MMP-9 (in 2 hours, FIG. 2A)
release of encapsulated carboxyfluorescein from LP1/DSPC liposomes (fluorescence at 518 nm, five hours) [2]: In five hours, about 55% of the encapsulated dye was found to be released

trypsin
cleavage of the peptide, products analyzed by RP-HPLC [1]: efficiently cleaved by the target enzyme MMP-9 as well as by a non-specific proteolytic enzyme, trypsin
release of encapsulated carboxyfluorescein from LP1/DSPC liposomes (fluorescence at 518 nm) [2]: trypsin, once again failed to release the dye from the liposome
